From patent US20230390418A1, “[…] XII ANTIBODIES AND ADMINISTRATION THEREOF” (REGENXBIO INC., priority 2020, published 2023)

How the values were obtained:
[1] = molecular target: activated human plasma kallikrein (Enzyme Research Laboratories) (human) (UniProt P03952); assay: cell-based or functional assay
[2] = test system: carrageenan-induced paw edema; assay: Carrageenan paw edema model in mice (paw volume, plethysmometer); format: in vivo; conditions: C57BL/6 mice, vectors 21 days, Diclofenac 30 minutes prior to carrageenan
Source text: Inflammation models induced by carrageenan are frequently used acute inflammation models. Carrageenan (Cg) is a strong chemical agent that functions in stimulating the release of inflammatory and proinflammatory mediators, including bradykinin, histamine, tachykinins, reactive oxygen, and nitrogen species. Typical signs of inflammation include edema, hyperalgesia, and erythema, which develop immediately following the treatment of carrageenan. This example evaluated the effect of AAV-mediated gene delivery of Lanadelumab on carrageenan-induced paw edema in mice.
In total eighty young adult (8-9 weeks old) male C57BL/6 mice were used for this study. Paw edema was induced by a single subcutaneous (s.c.) injection of 30 μL of 0.7% or 1% carrageenan solution. Test vectors and positive control Diclofenac were administered at 21 days and 30 minutes prior to carrageenan treatment. Blood was collected before vectors injection and at 7 and 21 days post injection from mice in groups 1, 3, 4, 5, 7 and 8. Paw volume was measured using a digital Plethysmometer prior to carrageenan injection, and at 2, 4, 6, 8, 24 and 48 hours after injection. All animals were sacrificed 48 hours after carrageenan injection. Liver and paw specimens were also collected at the necropsy.

[3] = molecular target: T1, activated human plasma kallikrein (Homo sapiens, UniProt P03952); assay: In vitro pKal functional assay (fluorogenic PFR-AMC substrate); format: biochemical
T1 construct: purchased Enzyme Research Laboratories
Method: In order to measure pKal function of lanadelumab derived from mouse serum following AAV-lanadelumab administration, a fluorescence-based kinetic enzymatic functional assay was performed. First, activated human plasma kallikrein (Enzyme Research Laboratories) was diluted in sample dilution buffer (SDB; 1×PBS, 3% BSA, 0.1% Tween-20) to top concentration of 100 nM. This pKal was two-fold serially diluted for a total of 12 concentrations in the dilution series (100 nM-0.05 nM). From each dilution, and in duplicate, […], was placed in one well of a 96-well, opaque flat-bottomed plate along with […], of SDB. […] The samples were immediately run in kinetic mode for AMC fluorescence at excitation/emission wavelengths of 380/460 nm, respectively, for 3 hours using a SpectraMax 3 fluorescent plate reader.
The signal-to-noise ratio for each pKal concentration RFU (last RFU fluorescent value chosen) was calculated by dividing its RFU by background PFR-AMC substrate fluorescence. […] Antibody-pKal mixture was then given PFR-AMC and immediately run in kinetic mode for AMC fluorescence at excitation/emission wavelengths of 380/460 nm, respectively, for 3 hours using a SpectraMax fluorescent plate reader.
In vitro pKal functional assay. […] Total antibody concentration was measured using a Nanodrop spectrophotometer, with OD absorbance=280 nm. […]

T1 sequence (P03952 391-638 limits assumed): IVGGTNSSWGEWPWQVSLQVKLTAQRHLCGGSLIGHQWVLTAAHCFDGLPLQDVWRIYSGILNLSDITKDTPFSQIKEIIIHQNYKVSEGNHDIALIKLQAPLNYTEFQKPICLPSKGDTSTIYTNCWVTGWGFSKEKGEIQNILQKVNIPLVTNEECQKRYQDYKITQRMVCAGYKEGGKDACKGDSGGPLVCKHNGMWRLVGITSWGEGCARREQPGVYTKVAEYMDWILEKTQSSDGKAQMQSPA
T1 sequence (P03952 20-390 limits assumed): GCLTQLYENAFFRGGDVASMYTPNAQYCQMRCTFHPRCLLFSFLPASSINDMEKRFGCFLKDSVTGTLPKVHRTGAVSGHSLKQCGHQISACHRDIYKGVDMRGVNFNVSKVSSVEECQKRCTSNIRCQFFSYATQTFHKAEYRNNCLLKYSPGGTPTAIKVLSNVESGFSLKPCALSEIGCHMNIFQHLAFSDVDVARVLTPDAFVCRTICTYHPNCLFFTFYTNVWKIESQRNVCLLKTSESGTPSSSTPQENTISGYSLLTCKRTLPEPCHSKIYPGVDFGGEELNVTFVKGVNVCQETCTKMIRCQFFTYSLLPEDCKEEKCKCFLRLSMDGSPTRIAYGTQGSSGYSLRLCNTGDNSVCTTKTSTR

Molecule: Vectorized lanadelumab derived from mouse serum following AAV-lanadelumab administration (antibody)
- percent reduction in pKal activity (serum diluted 1:25, day 49 post-administration against day -7; PFR-AMC assay) [1]: 50%

Molecule: Lanadelumab (GenScript) (antibody)
- suppression of pKal activity (PFR-AMC fluorogenic substrate, kinetic AMC fluorescence) [1]: 0.1 nM

Molecule: O=C(O)Cc1ccccc1Nc1c(Cl)cccc1Cl [diclofenac, Diclofenac]
- Paw volume versus vehicle control ([2]; 0.7% carrageenan model): a significant decrease on paw volume was observed only at 4 and 24 hours post injection
- Paw volume versus vehicle control ([2]; 1.0% carrageenan model): significantly decreased the paw volume at 2, 4, 6, 8 and 24 hours post carrageenan injection

B1: lanadelumab: human anti-pKal (anti-kallikrein) IgG antibody; purified (GenScript) or produced in serum via AAV-mediated gene delivery (antibody)
heavy: EVQLLESGGGLVQPGGSLRLSCAASGFTFSHYIMMWVRQAPGKGLEWVSGIYSSGGITVYADSVKGRFTISRDNSKNTLYLQMNSLRAEDTAVYYCAYRRIGVPRRDEFDIWGQGTMVTVSSASTKGPSVFPLAPSSKSTSGGTAALGCLVKDYFPEPVTVSWNSGALTSGVHTFPAVLQSSGLYSLSSVVTVPSSSLGTQTYICNVNHKPSNTKVDKRVEPKSCDKTHTCPPCPAPELLGGPSVFL
light: DIQMTQSPSTLSASVGDRVTITCRASQSISSWLAWYQQKPGKAPKLLIYKASTLESGVPSRFSGSGSGTEFTLTISSLQPDDFATYYCQQYNTYWTFGQGTKVEIKRTVAAPSVFIFPPSDEQLKSGTASVVCLLNNFYPREAKVQWKVDNALQSGNSQESVTEQDSKDSTYSLSSTLTLSKADYEKHKVYACEVTHQGLSSPVTKSFNRGEC
modifications: Lanadelumab Heavy; misc (227)..(230) amino acids 227 to 230 are present or absent; misc (231)..(236) amino acids 231 to 236 are present or absent; misc (237)..(247) amino acids 237 to 247 are present or absent; Lanadelumab Light
notes: human anti-pKal (anti-kallikrein) IgG antibody; purified (GenScript) or produced in serum via AAV-mediated gene delivery
- Suppression of human pKal function by purified total IgG from mouse serum ([3]; IgG purified from day 49 post-administration serum versus day −7): suppressed human pKal function
- Lowest in-well concentration with noticeable suppression of pKal activity ([3]; purified antibody, defined enzyme concentration): 0.1 nM
- Paw volume versus vehicle control ([2]; 1.0% carrageenan model): significantly reduces the severity of inflammation
